Test results: article doi:10.1101/2024.02.27.582255 (bioRxiv, 2024)
Ends that are not written are not given here. * marks the point of attachment. For = O=C*

Target: the molecule itself
Assay: ThT fluorescence + TEM

For-MEFVAKLFKFFKDLLGKFLGNN [formylated wild-type phenol soluble modulin α3 (f-WT PSMα3)]
binding result: binds

MEFVAKLFKFFKDLLGKFLGNN [deformylated wild-type phenol soluble modulin α3 (df-WT PSMα3)]
binding result: binds
